Measured values: article PMC11315935, “Multi-layered heterochromatin interaction as a switch for DIM2-mediated DNA methylation” (Nature Communications, 2024)
Values belong to the binder of their own block, whether it stands above or below them.

Experiments:
[1] = biological target: histone H3 peptide (residues 1-24) with H3K9me3, plus a C-terminal tryptophan (UniProt P68431 2-25, trimethyl-lysine at K9); experiment: cell-based or functional assay
[2] = biological target: T1, heterochromatin protein 1 (HP1), full length, residues 1-266 (Neurospora crassa, UniProt Q1K612 1-266); experiment: cell-based or functional assay
T1 sequence (looked up): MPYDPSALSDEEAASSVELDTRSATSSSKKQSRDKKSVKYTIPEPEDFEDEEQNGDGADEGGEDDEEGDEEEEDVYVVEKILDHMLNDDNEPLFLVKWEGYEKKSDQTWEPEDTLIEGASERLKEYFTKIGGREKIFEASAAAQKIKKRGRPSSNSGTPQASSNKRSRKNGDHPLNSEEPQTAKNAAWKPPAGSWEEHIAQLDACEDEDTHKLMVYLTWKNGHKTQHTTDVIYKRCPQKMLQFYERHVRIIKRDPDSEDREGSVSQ

in vitro DNA methylation of a 36-mer duplex by DIM2 with HP1 and H3K9me3 peptide, against the DIM2-HP1 mixture [1]: ~90 fold
B1: DIM2 (Defective-In-Methylation-2) N-terminal fragment, residues 1-1242, wild type (domain or fragment, Neurospora crassa, UniProt Q3Y3Z1 1-1242, looked up)
chain: MDSPDRSHGGMFIDVPAETMGFQEDYLDMFASVLSQGLAKEGDYAHHQPLPAGKEECLEPIAVATTITPSPDDPQLQLQLELEQQFQTESGLNGVDPAPAPESEDEADLPDGFSDESPDDDFVVQRSKHITVDLPVSTLINPRSTFQRIDENDNLVPPPQSTPERVAVEDLLKAAKAAGKNKEDYIEFELHDFNFYVNYAYHPQEMRPIQLVATKVLHDKYYFDGVLKYGNTKHYVTGMQVLELPVGNYGASLHSVKGQIWVRSKHNAKKEIYYLLKKPAFEYQRYYQPFLWIADLGKHVVDYCTRMVERKREVTLGCFKSDFIQWASKAHGKSKAFQNWRAQHPSDDFRTSVAANIGYIWKEINGVAGAKRAAGDQLFRELMIVKPGQYFRQEVPPGPVVTEGDRTVAATIVTPYIKECFGHMILGKVLRLAGEDAEKEKEVKLAKRLKIENKNATKADTKDDMKNDTATESLPTPLRSLPVQVLEATPIESDIVSIVSSDLPPSENNPPPLTNGSVKPKAKANPKPKPSTQPLHAAHVKYLSQELVNKIKVGDVISTPRDDSSNTDTKWKPTDTDDHRWFGLVQRVHTAKTKSSGRGLNSKSFDVIWFYRPEDTPCCAMKYKWRNELFLSNHCTCQEGHHARVKGNEVLAVHPVDWFGTPESNKGEFFVRQLYESEQRRWITLQKDHLTCYHNQPPKPPTAPYKPGDTVLATLSPSDKFSDPYEVVEYFTQGEKETAFVRLRKLLRRRKVDRQDAPANELVYTEDLVDVRAERIVGKCIMRCFRPDERVPSPYDRGGTGNMFFITHRQDHGRCVPLDTLPPTLRQGFNPLGNLGKPKLRGMDLYCGGGNFGRGLEEGGVVEMRWANDIWDKAIHTYMANTPDPNKTNPFLGSVDDLLRLALEGKFSDNVPRPGEVDFIAAGSPCPGFSLLTQDKKVLNQVKNQSLVASFASFVDFYRPKYGVLENVSGIVQTFVNRKQDVLSQLFCALVGMGYQAQLILGDAWAHGAPQSRERVFLYFAAPGLPLPDPPLPSHSHYRVKNRNIGFLCNGESYVQRSFIPTAFKFVSAGEGTADLPKIGDGKPDACVRFPDHRLASGITPYIRAQYACIPTHPYGMNFIKAWNNGNGVMSKSDRDLFPSEGKTRTSDASVGWKRLNPKTLFPTVTTTSNPSDARMGPGLHWDEDRPYTVQEMRRAQGYLDEEVLVGRTTDQWKLVGNSVSRHMALAIGLKFREAWLGTLYD

in vitro DNA methylation: activity-stimulation effect of HP1, reduction against WT DIM2 [2]: ~8 fold
B2: DIM2 (residues 1-1242) R1104A mutant (domain or fragment, Neurospora crassa, UniProt Q3Y3Z1 1-1242, looked up)
chain: MDSPDRSHGGMFIDVPAETMGFQEDYLDMFASVLSQGLAKEGDYAHHQPLPAGKEECLEPIAVATTITPSPDDPQLQLQLELEQQFQTESGLNGVDPAPAPESEDEADLPDGFSDESPDDDFVVQRSKHITVDLPVSTLINPRSTFQRIDENDNLVPPPQSTPERVAVEDLLKAAKAAGKNKEDYIEFELHDFNFYVNYAYHPQEMRPIQLVATKVLHDKYYFDGVLKYGNTKHYVTGMQVLELPVGNYGASLHSVKGQIWVRSKHNAKKEIYYLLKKPAFEYQRYYQPFLWIADLGKHVVDYCTRMVERKREVTLGCFKSDFIQWASKAHGKSKAFQNWRAQHPSDDFRTSVAANIGYIWKEINGVAGAKRAAGDQLFRELMIVKPGQYFRQEVPPGPVVTEGDRTVAATIVTPYIKECFGHMILGKVLRLAGEDAEKEKEVKLAKRLKIENKNATKADTKDDMKNDTATESLPTPLRSLPVQVLEATPIESDIVSIVSSDLPPSENNPPPLTNGSVKPKAKANPKPKPSTQPLHAAHVKYLSQELVNKIKVGDVISTPRDDSSNTDTKWKPTDTDDHRWFGLVQRVHTAKTKSSGRGLNSKSFDVIWFYRPEDTPCCAMKYKWRNELFLSNHCTCQEGHHARVKGNEVLAVHPVDWFGTPESNKGEFFVRQLYESEQRRWITLQKDHLTCYHNQPPKPPTAPYKPGDTVLATLSPSDKFSDPYEVVEYFTQGEKETAFVRLRKLLRRRKVDRQDAPANELVYTEDLVDVRAERIVGKCIMRCFRPDERVPSPYDRGGTGNMFFITHRQDHGRCVPLDTLPPTLRQGFNPLGNLGKPKLRGMDLYCGGGNFGRGLEEGGVVEMRWANDIWDKAIHTYMANTPDPNKTNPFLGSVDDLLRLALEGKFSDNVPRPGEVDFIAAGSPCPGFSLLTQDKKVLNQVKNQSLVASFASFVDFYRPKYGVLENVSGIVQTFVNRKQDVLSQLFCALVGMGYQAQLILGDAWAHGAPQSRERVFLYFAAPGLPLPDPPLPSHSHYRVKNRNIGFLCNGESYVQRSFIPTAFKFVSAGEGTADLPKIGDGKPDACVRFPDHRLASGITPYIAAQYACIPTHPYGMNFIKAWNNGNGVMSKSDRDLFPSEGKTRTSDASVGWKRLNPKTLFPTVTTTSNPSDARMGPGLHWDEDRPYTVQEMRRAQGYLDEEVLVGRTTDQWKLVGNSVSRHMALAIGLKFREAWLGTLYD
thermal shift assay: change of the Tm of DIM2 on co-incubation with HP1 [2]: 2.5 °C

in vitro DNA methylation of (CTA)12/(TAG)12 duplex with HP1 and H3(1-24)K9me3 peptide; reduction against WT DIM2 [2]: 14 fold
B3: DIM2 (residues 1-1242) L134A/L139A double mutant (domain or fragment, Neurospora crassa, UniProt Q3Y3Z1 1-1242, looked up)
chain: MDSPDRSHGGMFIDVPAETMGFQEDYLDMFASVLSQGLAKEGDYAHHQPLPAGKEECLEPIAVATTITPSPDDPQLQLQLELEQQFQTESGLNGVDPAPAPESEDEADLPDGFSDESPDDDFVVQRSKHITVDAPVSTAINPRSTFQRIDENDNLVPPPQSTPERVAVEDLLKAAKAAGKNKEDYIEFELHDFNFYVNYAYHPQEMRPIQLVATKVLHDKYYFDGVLKYGNTKHYVTGMQVLELPVGNYGASLHSVKGQIWVRSKHNAKKEIYYLLKKPAFEYQRYYQPFLWIADLGKHVVDYCTRMVERKREVTLGCFKSDFIQWASKAHGKSKAFQNWRAQHPSDDFRTSVAANIGYIWKEINGVAGAKRAAGDQLFRELMIVKPGQYFRQEVPPGPVVTEGDRTVAATIVTPYIKECFGHMILGKVLRLAGEDAEKEKEVKLAKRLKIENKNATKADTKDDMKNDTATESLPTPLRSLPVQVLEATPIESDIVSIVSSDLPPSENNPPPLTNGSVKPKAKANPKPKPSTQPLHAAHVKYLSQELVNKIKVGDVISTPRDDSSNTDTKWKPTDTDDHRWFGLVQRVHTAKTKSSGRGLNSKSFDVIWFYRPEDTPCCAMKYKWRNELFLSNHCTCQEGHHARVKGNEVLAVHPVDWFGTPESNKGEFFVRQLYESEQRRWITLQKDHLTCYHNQPPKPPTAPYKPGDTVLATLSPSDKFSDPYEVVEYFTQGEKETAFVRLRKLLRRRKVDRQDAPANELVYTEDLVDVRAERIVGKCIMRCFRPDERVPSPYDRGGTGNMFFITHRQDHGRCVPLDTLPPTLRQGFNPLGNLGKPKLRGMDLYCGGGNFGRGLEEGGVVEMRWANDIWDKAIHTYMANTPDPNKTNPFLGSVDDLLRLALEGKFSDNVPRPGEVDFIAAGSPCPGFSLLTQDKKVLNQVKNQSLVASFASFVDFYRPKYGVLENVSGIVQTFVNRKQDVLSQLFCALVGMGYQAQLILGDAWAHGAPQSRERVFLYFAAPGLPLPDPPLPSHSHYRVKNRNIGFLCNGESYVQRSFIPTAFKFVSAGEGTADLPKIGDGKPDACVRFPDHRLASGITPYIRAQYACIPTHPYGMNFIKAWNNGNGVMSKSDRDLFPSEGKTRTSDASVGWKRLNPKTLFPTVTTTSNPSDARMGPGLHWDEDRPYTVQEMRRAQGYLDEEVLVGRTTDQWKLVGNSVSRHMALAIGLKFREAWLGTLYD
